From US20220267415A1

B1: anti-SARS-CoV2-09 IgG (antibody, V domains shown)
VH: QVQLHQWGAGLLKPSETLSRTCAVYGGSFSGYYWTWIRQAPGKGLEWIGEINHGGSTRYNPSLESRVSISVDTSKKQFSLELRSVTAADTAIYYCARGYDTNWYGDGYNWFDPWDRGTLVTVSS
VL: QSALTQDPSVSVALGQTVRITCQGDSLRGSFASWYRQKPGQAPVLVIFGINNRPSGVPDRFSGSSSGNTASLTITGAQAEDEADYYCNSRESNSNRILFGGGTKVTVL
B2: anti-SARS-CoV2-16 IgG (antibody, V domains shown)
VH: B1 VH
VL: QAVVTQPPSVSGTPGQRVTISCSGSSSSIGSNTVHWYQHLPGTAPKLLMYNNNERPSGVPARFSGSKSGTSASLVITGLQADDEAEYYCQSYDTGLSGHVFGSGTELTVL

Biological target: recombinant SARS-CoV-2 Receptor Binding Domain (RBD) with a his tag (ATUM, Cat. 65639.1.a) (SARS-CoV-2), P0DTC2
Assay: ELISA on coated RBD-his
Conditions: remark: other sources report otherwise

Row | Binder | EC50
1 | B1 | 2.3 nM
2 | B2 | 4.2 nM
